Laboratory results reported in patent US20230220104A1 (BRIGHTPATH BIOTHERAPEUTICS, published 2023).
Like-named read-outs stand apart in the source and are kept apart here.

T1: human CD73 on cells (H322, MDA-MB-231, HT-144, T cells, CD73-transfected HEK293T) (human, UniProt P21589 27-549)
T1 construct: whole, on cells; One molecule for endogenous and transfected cell-surface human CD73; the cell line is named under assay or readout; also called CD73 antigen; human CD73 antigen
T1 sequence (looked up): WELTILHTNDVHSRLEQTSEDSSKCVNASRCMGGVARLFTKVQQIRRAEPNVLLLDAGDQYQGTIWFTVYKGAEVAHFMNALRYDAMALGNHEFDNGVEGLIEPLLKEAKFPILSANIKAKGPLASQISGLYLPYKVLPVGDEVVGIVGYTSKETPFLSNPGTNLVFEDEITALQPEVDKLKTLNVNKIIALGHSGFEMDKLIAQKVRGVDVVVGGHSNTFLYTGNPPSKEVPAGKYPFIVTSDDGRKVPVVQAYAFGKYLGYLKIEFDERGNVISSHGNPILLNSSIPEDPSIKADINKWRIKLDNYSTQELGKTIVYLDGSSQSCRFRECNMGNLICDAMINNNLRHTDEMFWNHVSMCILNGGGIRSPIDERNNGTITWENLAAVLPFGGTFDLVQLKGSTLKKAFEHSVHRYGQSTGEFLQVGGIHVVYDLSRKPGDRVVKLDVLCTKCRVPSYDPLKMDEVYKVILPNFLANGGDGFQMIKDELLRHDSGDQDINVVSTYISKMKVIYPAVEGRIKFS


Experiments:
[1] = target: T1, human CD73 on cells (H322, MDA-MB-231, …); assay: flow cytometry on H322 cells (endogenous CD73), PE channel
Procedure: Analysis of the binding activity of each of the obtained humanized antibodies 002_6_h1 to 002_6_h8 to target expressing cells was carried out by FACS analysis using endogeneously CD73 expressing cells (human lung cancer cell line H322).

[2] = target: T1, human CD73 on cells (H322, MDA-MB-231, …); assay: cell-based or functional assay
[3] = target: T1, human CD73 on cells (H322, MDA-MB-231, …); assay: cell-based or functional assay; remark: listed apart in the source
[4] = target: T1, human CD73 on cells (H322, MDA-MB-231, …); assay: cell-based or functional assay; remark: listed apart in the source
[5] = target: T1, human CD73 on cells (H322, MDA-MB-231, …); assay: cell-based or functional assay; remark: listed apart in the source
[6] = target: T1, human CD73 on cells (H322, MDA-MB-231, …); assay: cell-based or functional assay; remark: listed apart in the source

Binder | IC50 of AMP degradation suppressive function (cell line of Table 7 not stated; H322 in FIG. 12) [3] | IC50 of AMP degradation suppressive function, MDA-MB-231 cells [4] | IC50 of AMP degradation suppressive function, H322 cells [5] | further results
002_6_h1 (antibody, V domains shown, Humanized antibody of 002_6_c; also called humanized antibody 002_6_h1) VH: QVQLVQSGAEVKKPGASVKVSCKASGYTFTDSNMDWVRQAPGQRLEWMGDINPNNGGTIYNQKFKGRVTITRDTSASTAYMELSSLRSEDTAVYYCARTNWDYAMDYWGQGTLVTVSS VL: DIQMTQSPSSLSASVGDRVTITCKASQDINSQLSWYQQKPGKAPKLLIYRANRLIDGVPSRFSGSGSGTDFTLTISSLQPEDFATYYCQQYDVFPRTFGQGTKLEIK |  |  |  | binding result [1]: binds
002_6_h3 (antibody, V domains shown, Humanized antibody of 002_6_c; also called humanized antibody 002_6_h3) VH: QVQLLQSAAEVRKPGASVKVSCKASGYTFTDSNMDWVRQAPGQGLEWMGDINPNNGGTIYNQKFKGRVTMTTDTSRRTAYMELRSLRSDDTAVYYCARTNWDYAMDYWGQGTTVTVSS VL: DIQMTQSPSFLSASVGDRVTITCKASQDINSQLSWYQQKPGKAPKLLIYRANRLIDGVPSRFSGSGSGTEFTLTISSLQPEDFATYYCQQYDVFPRTFGGGTKLEIK |  |  |  | binding result [1]: binds
002_6_h6 (antibody, V domains shown, Humanized antibody of 002_6_c; also called humanized antibody 002_6_h6) VH: QVQMKESGAEVKKPGASVKVSCKASGYTFTDSNMDWVRQAPGQGLEWMGDINPNNGGTIYNQKFKGRVTMTIDTSTSTVYMELSSLRSEDTAVYYCARTNWDYAMDYWGQGTLVTVSS VL: DIQVTQSPSFLSASVGDRVTITCKASQDINSQLSWYQQKPGKAPKTLIYRANRLIDGVPSRFSGSGSGTDFTLTISSLQYEDMATYYCLQYDVFPRTFGGGTKVEIK |  |  |  | binding result [1]: binds
002_6_h2 (antibody, V domains shown) VH: QVQMKQSGAEVKKPGASVKVSCKASGYTFTDSNMDWVRQAPGQRLEWMGDINPNNGGTIYNQKFKGRVTITIDTSASTAYMELSSLRSEDTAVYYCARTNWDYAMDYWGQGTLVTVSS VL: DIQMTQSPSSMSASVGDRVTITCKASQDINSQLSWYQQKPGKAPKTLIYRANRLIDGVPSRFSGSGSGTDFTLTISSLQYEDMATYYCLQYDVFPRTFGQGTKLEIK |  |  |  | IC50 of AMP degradation suppressive function, H322 cells [2]: 0.236 µg/mL
002_6_h5 (antibody, V domains shown, Humanized antibody of 002_6_c; also called humanized antibody 002_6_h5) VH: QVQLQESGAEVKKPGASVKVSCKASGYTFTDSNMDWVRQAPGQGLEWMGDINPNNGGTIYNQKFKGRVTMTRDTSTSTVYMELSSLRSEDTAVYYCARTNWDYAMDYWGQGTLVTVSS VL: DIQVTQSPSFLSASVGDRVTITCKASQDINSQLSWYQQKPGKAPKLLIYRANRLIDGVPSRFSGSGSGTEFTLTISSLQPEDFATYYCQQYDVFPRTFGGGTKVEIK |  |  |  | binding result [1]: binds
002_1_c antibody (antibody, V domains shown) VH: QVQMKQSGPELVKPGASVKIPCKASGYTFTDCNMDWVKQSHGESLEWIGDINPNNGGTIYNQKFKGKVTLTIDKSSSTAYMELRSLTSEDTAVYYCARTNWDYAMDYWGQGTSVTVSS VL: DIQMTQSPSSMYASLGERVTITCKASQDINSNLSWFQQKPGKSPKTLIYRANRLIDGVPSRFSGSGSGQDYSLTISSLEYEDMGIYYCLQYDVFPRTFGGGTKLELK |  |  | 0.042 µg/mL | 
006_m antibody (antibody, V domains shown) VH: QVQLQQPGAELVKPGVSVKLSCKASGYTFTSYWMHWVKQRPGQGPEWIGEINPSNARTNYNENFKSKATLTVDKSSTTAYMHFSRLTSEDSAVYYCARRGTSGNYFDFWGQGTTVTVSS VL: DIQMTQSPSSMYASLGERVTITCKASQDINTYLSWFQQKPGKSPKTLIYRANRLVDGVPSRFSGSGSGEDYSLTISSLEYEDMGIYYCLQYDEFPYTFGGGTRLEIK | 0.008 µg/mL | 0.032 µg/mL |  | 
002_2_c antibody (antibody, V domains shown) VH: QVQMKQSGPELVKPGASVKIPCKASGYTFTDCNMDWVKQSHGESLEWIGDINPNNGGTIYNQKFKGKVTLTIDKSSSTAYMELRSLTSEDTAVYYCARTNWDYAMDYWGQGTSVTVSS VL: DIQMTQSPSSMYASLGERVTITCKASQDINSDLSWFQQKPGKSPKTLIYRANRLIDGVPSRFSGSGSGQDYSLTISSLEYEDMGIYYCLQYDVFPRTFGGGTKLELK |  |  | 0.077 µg/mL | 
002_4_c antibody (antibody, V domains shown) VH: QVQMKQSGPELVKPGASVKIPCKASGYTFTDSNMDWVKQSHGESLEWIGDINPNNGGTIYNQKFKGKVTLTIDKSSSTAYMELRSLTSEDTAVYYCARTNWDYAMDYWGQGTSVTVSS VL: DIQMTQSPSSMYASLGERVTITCKASQDINSNLSWFQQKPGKSPKTLIYRANRLIDGVPSRFSGSGSGQDYSLTISSLEYEDMGIYYCLQYDVFPRTFGGGTKLELK |  |  | 0.038 µg/mL | 
002_3_c antibody (antibody, V domains shown) VH: QVQMKQSGPELVKPGASVKIPCKASGYTFTDCNMDWVKQSHGESLEWIGDINPNNGGTIYNQKFKGKVTLTIDKSSSTAYMELRSLTSEDTAVYYCARTNWDYAMDYWGQGTSVTVSS VL: DIQMTQSPSSMYASLGERVTITCKASQDINSQLSWFQQKPGKSPKTLIYRANRLIDGVPSRFSGSGSGQDYSLTISSLEYEDMGIYYCLQYDVFPRTFGGGTKLELK |  |  | 0.039 µg/mL | 

Further lines, with some results ahead:

IC50 of AMP degradation suppressive function (cell line of Table 7 not stated; H322 in FIG. 12) [3] | IC50 of AMP degradation suppressive function, MDA-MB-231 cells [4] | IC50 of AMP degradation suppressive function, H322 cells [5] | Binder | further results
0.013 µg/mL | 0.032 µg/mL |  | 004_m antibody (antibody, V domains shown) VH: QVQLQQPGAELVRPGTSVKLSCKASGYTFTGYWMNWLKQRPDQGLEWIGRIDPYDSETHYSQKFKDKAILTVHKSSSTAYIQLNSLTSEDSAVYYCTRSSPITTAPFDYWGRGTTLTVSS VL: not shown | 
0.088 µg/mL |  |  | 003_m antibody (antibody, V domains shown) VH: DVKLVESGGGLVQPGGSRKLSCAASGFTFSSFGMHWVRQAPEKGLEWVAYISSGSRTIYYADTVRGRFTISRDNSKNTLFLQLTSLRSEDTAIYYCASDFGSSSPNYFDYWGQGTTVTVSS VL: not shown | 
0.012 µg/mL | 0.041 µg/mL |  | 007_m antibody (antibody, V domains shown) VH: QVQLQQPGAELVRPGASVKLSCKASGYTFTSYWMNWVKQRPEQGLEWIGKIDPYDSETHYNQKFKDKAILTVDKSSSTAFMQLSSLTSEDSAVYYCARIRYGTFDYWGQGTTLTVSS VL: DIVMTQSPSSMYASLGERVTITCKASQDINNYLSWFQQKPGKSPKTLIYRANILVDGVPSGFSGSGSGQDYSLTISSLEYEDMGIYYCLQYDEFPYTFGGGTRLEIK | 
0.006 µg/mL | 0.031 µg/mL |  | 008_m antibody (antibody, V domains shown) VH: QVQLKQSGAELVKPGASVKLSCKASGYTFTSYWMHWVKQRPGQGPEWIGEINPSNGRTNYNEKFKNRATLTVDKSSSTAYMQLSRLTSEDSAVYYCARRGTSGNYFDYWGQGTTLTVSS VL: DIQMTQSPSSMYASLGERVTITCKASQDINTYLSWFQQKPGKSPKTLIYRANRLVDGVPSRFSGSGSGEDYSLTISSLEYEDMGIYYCLQYDEFPYTFGGGTRLEIK | 
 | 0.04 µg/mL | 0.042 µg/mL | 002_6_c antibody (antibody, V domains shown) VH: QVQMKQSGPELVKPGASVKIPCKASGYTFTDSNMDWVKQSHGESLEWIGDINPNNGGTIYNQKFKGKVTLTIDKSSSTAYMELRSLTSEDTAVYYCARTNWDYAMDYWGQGTSVTVSS VL: DIQMTQSPSSMYASLGERVTITCKASQDINSQLSWFQQKPGKSPKTLIYRANRLIDGVPSRFSGSGSGQDYSLTISSLEYEDMGIYYCLQYDVFPRTFGGGTKLELK | IC50 of AMP degradation suppressive function, H322 cells [2]: 0.04 µg/mL; IC50 of AMP degradation suppressive function, MDA-MB-231 cells [6]: 0.023 µg/mL
 |  | 0.066 µg/mL | 002_5_c antibody (antibody, V domains shown) VH: QVQMKQSGPELVKPGASVKIPCKASGYTFTDSNMDWVKQSHGESLEWIGDINPNNGGTIYNQKFKGKVTLTIDKSSSTAYMELRSLTSEDTAVYYCARTNWDYAMDYWGQGTSVTVSS VL: DIQMTQSPSSMYASLGERVTITCKASQDINSDLSWFQQKPGKSPKTLIYRANRLIDGVPSRFSGSGSGQDYSLTISSLEYEDMGIYYCLQYDVFPRTFGGGTKLELK | 
